From article PMC6377682 (2019)

B1: human ASPP2^920-1120 [human] / human PP1β^6-327 [human] (parent complex)
chain 1: MRVKFNPLALLLDSSLEGEFDLVQRIIYEVDDPSLPNDEGITALHNAVCAGHTEIVKFLVQFGVNVNAADSDGWTPLHCAASCNNVQVCKFLVESGAAVFAMTYSDMQTAADKCEEMEEGYTQCSQFLYGVQEKMGIMNKGVIYALWDYEPQNDDELPMKEGDCMTIIHREDEDEIEWWWARLNDKEGYVPRNLLGLYPRI
chain 2: LNVDSLITRLLEVRGCRPGKIVQMTEAEVRGLCIKSREIFLSQPILLELEAPLKICGDIHGQYTDLLRLFEYGGFPPEANYLFLGDYVDRGKQSLETICLLLAYKIKYPENFFLLRGNHECASINRIYGFYDECKRRFNIKLWKTFTDCFNCLPIAAIVDEKIFCCHGGLSPDLQSMEQIRRIMRPTDVPDTGLLCDLLWSDPDKDVQGWGENDRGVSFTFGADVVSKFLNRHDLDLICRAHQVVEDGYEFFAKRQLVTLFSAPNYCGEFDNAGGMMSVDETLMCSFQILKPSEKKAKYQYGGLNSGRPVTPPRTANPPKKR
B2: PP1α^301-330 C-tail peptide [human] / human ASPP2^920-1120 [human] (parent complex)
chain 1: KNKGKYGQFSGLNPGGRPITPPRNSAKAKK
chain 2: B1 chain 1
B3: human ASPP1^882-1090 [human] / human PP1β^6-327 [human] (parent complex)
chain 1: LRVRFNPLALLLDASLEGEFDLVQRIIYEVEDPSKPNDEGITPLHNAVCAGHHHIVKFLLDFGVNVNAADSDGWTPLHCAASCNSVHLCKQLVESGAAIFASTISDIETAADKCEEMEEGYIQCSQFLYGVQEKLGVMNKGVAYALWDYEAQNSDELSFHEGDALTILRRKDESETEWWWARLGDREGYVPKNLLGLYPRIKPRQRTLA
chain 2: B1 chain 2
B4: human ASPP2^920-1120 [human] / PP1α^301-330 C-tail peptide [human] (parent complex)
chain 1: B1 chain 1
chain 2: B2 chain 1

Variants of: B1
Assay: BLI

Point of comparison: chain 1 E171K, chain 1 D174S, Kd 178 nM. Against it:
- chain 1 D174S — within 1.5-fold, 136 nM

Variants of: B2
Assay: ITC

Point of comparison: chain 1 K29A, Kd 342 nM. Against it:
- chain 1 K30A — within 1.5-fold, 326 nM
- chain 1 K27A — 1.5-fold higher, 520 nM

Variants of: B3
Assay: BLI

chain 1 K171E, chain 1 S174D showed a Kd of 84.4 nM.

Variants of: B4
Assay: ITC

For chain 1 D172G, chain 1 E173P, the Kd was 172 nM.
